Experiment [1] addresses T1, Kv1.3 (mKate2-tagged, K-ΔKv1.3) 53-C-terminus (deletion M1-D52) (Homo sapiens, UniProt P22001). Nature of the experiment: fluorescent competitive binding assay (confocal, HEK293 cells).
For experiment [2], the target named is Kv1.3 (mKate2-tagged, K-Kv1.3) (Homo sapiens, UniProt P22001). Nature of the experiment: confocal fluorescence binding on HEK293 cells.
Experiment [3] has as its target T1, Kv1.3 (mKate2-tagged, K-ΔKv1.3) …. Put plainly: confocal fluorescence binding on HEK293 cells.

No end group written: not given here.

T1 sequence (P22001 53-575, stated change not applied): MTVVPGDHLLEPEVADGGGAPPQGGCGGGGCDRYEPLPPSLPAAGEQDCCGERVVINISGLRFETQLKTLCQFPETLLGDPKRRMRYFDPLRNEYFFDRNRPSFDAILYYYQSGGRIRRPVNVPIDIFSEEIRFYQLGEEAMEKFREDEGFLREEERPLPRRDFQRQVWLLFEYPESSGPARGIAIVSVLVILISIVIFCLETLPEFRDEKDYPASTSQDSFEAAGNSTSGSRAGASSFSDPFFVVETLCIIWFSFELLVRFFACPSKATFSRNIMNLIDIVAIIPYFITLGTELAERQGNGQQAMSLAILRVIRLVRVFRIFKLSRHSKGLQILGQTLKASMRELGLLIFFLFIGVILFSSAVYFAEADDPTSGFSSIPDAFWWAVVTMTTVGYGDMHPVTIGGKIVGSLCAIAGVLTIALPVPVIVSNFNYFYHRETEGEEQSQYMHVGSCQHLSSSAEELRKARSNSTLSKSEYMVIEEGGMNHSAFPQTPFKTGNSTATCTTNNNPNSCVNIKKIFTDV
Sequence of Kv1.3 (mKate2-tagged, K-Kv1.3) (P22001 whole entry): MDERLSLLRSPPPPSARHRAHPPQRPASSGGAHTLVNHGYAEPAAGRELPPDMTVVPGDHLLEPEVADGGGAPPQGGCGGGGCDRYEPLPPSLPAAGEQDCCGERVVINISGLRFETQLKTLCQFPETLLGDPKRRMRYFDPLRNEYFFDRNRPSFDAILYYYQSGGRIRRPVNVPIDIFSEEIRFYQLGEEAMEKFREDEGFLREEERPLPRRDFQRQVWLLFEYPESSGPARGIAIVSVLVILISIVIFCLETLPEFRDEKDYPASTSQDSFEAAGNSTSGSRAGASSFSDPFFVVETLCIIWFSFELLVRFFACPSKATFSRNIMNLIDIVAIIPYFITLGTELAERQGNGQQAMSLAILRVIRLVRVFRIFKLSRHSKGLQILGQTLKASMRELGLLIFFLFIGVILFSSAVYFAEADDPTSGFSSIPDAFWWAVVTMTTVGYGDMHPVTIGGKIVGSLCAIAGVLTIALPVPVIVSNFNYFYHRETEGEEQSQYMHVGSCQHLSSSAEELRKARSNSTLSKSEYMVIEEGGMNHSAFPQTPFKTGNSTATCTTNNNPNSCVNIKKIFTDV

What is called Ki is a dissociation constant, usually derived from enzyme kinetics or from competition with a known ligand. In experiment [1], TVIDVKCTSPKQCLPPCKAQFGIRAGAKCMNGKCKCYPH (ends and bridges not checked; cysteine pairing not given here) [Hongotoxin 1 (HgTx1)] showed an inhibitory constant (Ki) of 0.2 nM.
Still for that read-out and setting: with GVEINVKCSGSPQCLKPCKDAGMRFGKCMNRKCHCTPK (ends and bridges not checked; cysteine pairing not given here) [Kaliotoxin 1 (KTx1)] the figure was 4 nM; with GVPINVSCTGSPQCIKPCKDAGMRFGKCMNRKCHCTPK (ends and bridges not checked; cysteine pairing not given here) [Agitoxin 2 (AgTx2)], 1.1 nM.
Usually Kd stands for the free concentration of one partner at which half of the binding sites on the other are occupied at equilibrium, for simple one-to-one binding. A low value points to higher affinity. Turning to Atto488-TVIDVKCTSPKQCLPPCKAQFGIRAGAKCMNGKCKCYPH (ends and bridges not checked) [Hongotoxin 1 (Atto488-labeled, A-HgTx)], the Kd in experiment [2] was 0.3 nM; in experiment [3] it was 0.48 nM.

For the origin of these results see publication PMC9780825 (2022).
